# Assay results reported in the RNAGym collection of RNA variant scans (doi:10.1093/molbev/msab373).
# B1: Azoarcus group I ribozyme (parent)
# chain: GUGCCUUGCGCCGGGAAACCACGCAAGGGAUGGUGUCAAAUUCGGCGAAACCUAAGCGCCCGCCCGGGCGUAUGGCAACGCCGAGCCAAGCUUCGGCGCCUGCGCCGAUGAAGGUGUAGAGACUAGACGGCACCCACCUAAGGCAAACGCUAUGGUGAAGGCAUAGUCCAGGGAGUGGCGAAAGUCACACAAACCGG
# Variants of: B1
# Test: reverse-splicing fitness (ratio to wild type); higher = more active; in vitro selection; Mg2+ level not given
# Summary of the method: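 An in vitro group I ribozyme library with randomized positions was T7-transcribed and gel-purified. In triplicate, 10 pmol RNA in EPPS pH 7.5 was reacted with 50 pmoles of a 30-nt RNA substrate for 1 h at 37 °C across several added MgCl2 levels (1–48 mM), then stopped with EDTA. Products were reverse transcribed from a substrate-complementary primer, PCR-amplified and sequenced (HiSeq 4000). Fitness is a variant's read proportion after selection over that before, normalised to wild type.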
row,Variant,reverse-splicing fitness
1,GUGCCUUGCGCCGGGAAACCACGCAAGGGAUGGUGUCAAAUUCGGCGAAACCUAAGCGCCCGCCCGGGCGUAUGGCAACGCGGAGCCAAGCUUCGGCGCCUGCGCCGAUGGAGGUGUAGUGACUAGACGGCACCCACCUAAGGCCAACGUUAUGGUGAAGGCAUAGUCGAGGGAGGGGCGAAAGUCACACAAACCGG [C82G A111G A120U A145C C150U C169G U176G],0.00185
2,GUGCCUUGCGCCGGGAAACCACGCAAGGGAUGGUGUCAAAUUCGGCGAAACCUAAGCGCCCGCCCGGGCGUAUGGCAACGCGGAGCCAAGCUUCGGCGCCUGCGCCGAUGGAGGUGUAGUGACUAGACGGCACCCACCUAAGGCCAACGUUAUGGUGAAGGCAUAGUCUAGGGAGUGGCGAAAGUCACACAAACCGG [C82G A111G A120U A145C C150U C169U],0.00328
3,GUGCCUUGCGCCGGGAAACCACGCAAGGGAUGGUGUCAAAUUCGGCGAAACCUAAGCGCCCGCCCGGGCGUAUGGCAACGCGGAGCCAAGCUUCGGCGCCUGCGCCGAUGGAGGUGUAGUGACUAGACGGCACCCACCUAAGGCCAACGUUAUGGUGAAGGCAUAGUCUAGGGAGAGGCGAAAGUCACACAAACCGG [C82G A111G A120U A145C C150U C169U U176A],0.00258
4,GUGCCUUGCGCCGGGAAACCACGCAAGGGAUGGUGUCAAAUUCGGCGAAACCUAAGCGCCCGCCCGGGCGUAUGGCAACGCGGAGCCAAGCUUCGGCGCCUGCGCCGAUGGAGGUGUAGUGACUAGACGGCACCCACCUAAGGCCAACGUUAUGGUGAAGGCAUAGUCUAGGGAGCGGCGAAAGUCACACAAACCGG [C82G A111G A120U A145C C150U C169U U176C],0.00268
5,GUGCCUUGCGCCGGGAAACCACGCAAGGGAUGGUGUCAAAUUCGGCGAAACCUAAGCGCCCGCCCGGGCGUAUGGCAACGCGGAGCCAAGCUUCGGCGCCUGCGCCGAUGGAGGUGUAGUGACUAGACGGCACCCACCUAAGGCCAACGUUAUGGUGAAGGCAUAGUCUAGGGAGGGGCGAAAGUCACACAAACCGG [C82G A111G A120U A145C C150U C169U U176G],0.00214
6,GUGCCUUGCGCCGGGAAACCACGCAAGGGAUGGUGUCAAAUUCGGCGAAACCUAAGCGCCCGCCCGGGCGUAUGGCAACGCGGAGCCAAGCUUCGGCGCCUGCGCCGAUGGAGGUGUAGUGACUAGACGGCACCCACCUAAGGCCAACGUUAUGGUGAAGGCAUAGUCCAGGGAGAGGCGAAAGUCACACAAACCGG [C82G A111G A120U A145C C150U U176A],0.00647
7,GUGCCUUGCGCCGGGAAACCACGCAAGGGAUGGUGUCAAAUUCGGCGAAACCUAAGCGCCCGCCCGGGCGUAUGGCAACGCGGAGCCAAGCUUCGGCGCCUGCGCCGAUGGAGGUGUAGUGACUAGACGGCACCCACCUAAGGCCAACGUUAUGGUGAAGGCAUAGUCCAGGGAGCGGCGAAAGUCACACAAACCGG [C82G A111G A120U A145C C150U U176C],0.00541
8,GUGCCUUGCGCCGGGAAACCACGCAAGGGAUGGUGUCAAAUUCGGCGAAACCUAAGCGCCCGCCCGGGCGUAUGGCAACGCGGAGCCAAGCUUCGGCGCCUGCGCCGAUGGAGGUGUAGUGACUAGACGGCACCCACCUAAGGCCAACGUUAUGGUGAAGGCAUAGUCCAGGGAGGGGCGAAAGUCACACAAACCGG [C82G A111G A120U A145C C150U U176G],0.00303
9,GUGCCUUGCGCCGGGAAACCACGCAAGGGAUGGUGUCAAAUUCGGCGAAACCUAAGCGCCCGCCCGGGCGUAUGGCAACGCGGAGCCAAGCUUCGGCGCCUGCGCCGAUGGAGGUGUAGUGACUAGACGGCACCCACCUAAGGCCAACGCUAUGGUGAAGGCAUAGUCAAGGGAGUGGCGAAAGUCACACAAACCGG [C82G A111G A120U A145C C169A],0.00211
10,GUGCCUUGCGCCGGGAAACCACGCAAGGGAUGGUGUCAAAUUCGGCGAAACCUAAGCGCCCGCCCGGGCGUAUGGCAACGCGGAGCCAAGCUUCGGCGCCUGCGCCGAUGGAGGUGUAGUGACUAGACGGCACCCACCUAAGGCCAACGCUAUGGUGAAGGCAUAGUCAAGGGAGAGGCGAAAGUCACACAAACCGG [C82G A111G A120U A145C C169A U176A],0.00186
11,GUGCCUUGCGCCGGGAAACCACGCAAGGGAUGGUGUCAAAUUCGGCGAAACCUAAGCGCCCGCCCGGGCGUAUGGCAACGCGGAGCCAAGCUUCGGCGCCUGCGCCGAUGGAGGUGUAGUGACUAGACGGCACCCACCUAAGGCCAACGCUAUGGUGAAGGCAUAGUCAAGGGAGCGGCGAAAGUCACACAAACCGG [C82G A111G A120U A145C C169A U176C],0.00168
12,GUGCCUUGCGCCGGGAAACCACGCAAGGGAUGGUGUCAAAUUCGGCGAAACCUAAGCGCCCGCCCGGGCGUAUGGCAACGCGGAGCCAAGCUUCGGCGCCUGCGCCGAUGGAGGUGUAGUGACUAGACGGCACCCACCUAAGGCCAACGCUAUGGUGAAGGCAUAGUCAAGGGAGGGGCGAAAGUCACACAAACCGG [C82G A111G A120U A145C C169A U176G],0.00182
13,GUGCCUUGCGCCGGGAAACCACGCAAGGGAUGGUGUCAAAUUCGGCGAAACCUAAGCGCCCGCCCGGGCGUAUGGCAACGCGGAGCCAAGCUUCGGCGCCUGCGCCGAUGGAGGUGUAGUGACUAGACGGCACCCACCUAAGGCCAACGCUAUGGUGAAGGCAUAGUCGAGGGAGUGGCGAAAGUCACACAAACCGG [C82G A111G A120U A145C C169G],0.00347
14,GUGCCUUGCGCCGGGAAACCACGCAAGGGAUGGUGUCAAAUUCGGCGAAACCUAAGCGCCCGCCCGGGCGUAUGGCAACGCGGAGCCAAGCUUCGGCGCCUGCGCCGAUGGAGGUGUAGUGACUAGACGGCACCCACCUAAGGCCAACGCUAUGGUGAAGGCAUAGUCGAGGGAGAGGCGAAAGUCACACAAACCGG [C82G A111G A120U A145C C169G U176A],0.00244
15,GUGCCUUGCGCCGGGAAACCACGCAAGGGAUGGUGUCAAAUUCGGCGAAACCUAAGCGCCCGCCCGGGCGUAUGGCAACGCGGAGCCAAGCUUCGGCGCCUGCGCCGAUGGAGGUGUAGUGACUAGACGGCACCCACCUAAGGCCAACGCUAUGGUGAAGGCAUAGUCGAGGGAGCGGCGAAAGUCACACAAACCGG [C82G A111G A120U A145C C169G U176C],0.00181
